# B1: EEHEE_rd4_0763 (parent)
# chain: LTVHVGNVTYHFDNPEQAEEWAKRMAKKYQGQIHVKDGQFRIE
# Variants of: B1
# Experiment: folding stability dG (cDNA display proteolysis); higher = more stable
# Settings: PBS, room temperature
row,Variant,folding stability dG [kcal/mol]
1,LTVHVGNVTYHFDNPEQAEEWAKRMAKKYQGQIHVKDGWFRIE [Q39W],1.24
2,LTVHVGNVTYHFDNPEQAEEWAKRMAKKYQGQIHVKDGLFRIE [Q39L],0.835
3,LTVHVGNVTYHFDNPEQAEEWAKRMAKKYQGQIHVKDGEFRIE [Q39E],1.88
4,LTVHVGNVTYHFDNPEQGEEWAKRMAKKYQGQIHVKDGQFRIE [A18G],1.25
5,LTVHVGNVTYHQDNPEQAEEWAKRMAKKYQGQIHVKDGQFRIE [F12Q],-0.143
6,LTVHVGNVTYHMDNPEQAEEWAKRMAKKYQGQIHVKDGQFRIE [F12M],0.22
7,LTVHVGQVTYHFDNPEQAEEWAKRMAKKYQGQIHVKDGQFRIE [N7Q],1.56
8,LTVHVGSVTYHFDNPEQAEEWAKRMAKKYQGQIHVKDGQFRIE [N7S],1.7
9,LTVHVGYVTYHFDNPEQAEEWAKRMAKKYQGQIHVKDGQFRIE [N7Y],1.62
10,LTVHVGNVTYDFDNPEQAEEWAKRMAKKYQGQIHVKDGQFRIE [H11D],0.923
11,LTVHVDNVTYHFDNPEQAEEWAKRMAKKYQGQIHVKDGQFRIE [G6D],1.43
12,LTVHVGNVTYHFDNPEQAEEWAKRMAKKYQGQIHVKDGQWRIE [F40W],1.88
13,LTVHVGNVTYHFDNPEQAEEWAKRMAKKYQGQIHVKDGQRRIE [F40R],1
14,LTVHVGNVTYHFDNPEQAEEWAKRMAKKYQGQIHVKDGQHRIE [F40H],1.02
15,LTVHVGNVTYHFDNPEQAEEWAKRMAKKYQGQIHVKDGQARIE [F40A],1.06
16,LTCHVGNVTYHFDNPEQAEEWAKRMAKKYQGQIHVKDGQFRIE [V3C],1.34
17,LTEHVGNVTYHFDNPEQAEEWAKRMAKKYQGQIHVKDGQFRIE [V3E],0.235
18,LTWHVGNVTYHFDNPEQAEEWAKRMAKKYQGQIHVKDGQFRIE [V3W],0.755
19,LTVHVGNVPYHFDNPEQAEEWAKRMAKKYQGQIHVKDGQFRIE [T9P],0.963
20,LTVHVGNVSYHFDNPEQAEEWAKRMAKKYQGQIHVKDGQFRIE [T9S],1.4

row,Variant,folding stability dG [kcal/mol]
1,LTVHVGNVKYHFDNPEQAEEWAKRMAKKYQGQIHVKDGQFRIE [T9K],1.38
2,TTVHVGNVTYHFDNPEQAEEWAKRMAKKYQGQIHVKDGQFRIE [L1T],2.05
3,LTVHVGNVTYHFDNPEQAEEWAKRMAKKEQGQIHVKDGQFRIE [Y29E],0.616
4,LTVHVGNVTYHFDNPEQAEEWAKRYAKKYQGQIHVKDGQFRIE [M25Y],1.45
5,LTVHVGNVTYHFDNPEQAEEWAKRMAKKYQGQYHVKDGQFRIE [I33Y],1.2
6,LTVHVGNVTYHFDNPEQAEEWAKRMAKKYQGQIHVKDGQFRVE [I42V],1.58
7,LTVHVGNVTYHFDNPEQAEEWAKRMAKKYQGQIHVKDGQFRNE [I42N],1.05
8,LTVHVGNVTYHFDNPEQAEEWAKRMWKKYQGQIHVKDGQFRIE [A26W],1.28
9,LTVHVGNVTYHFDNPEQAEKWAKRMAKKYQGQIHVKDGQFRIE [E20K],1.8
10,LTVHVGNVTYHFDNPEQAEEWAKRMAKKYQHQIHVKDGQFRIE [G31H],1.46
11,LTVHVGNVTYHFDNPEQAEEWAKRMAKKYQQQIHVKDGQFRIE [G31Q],1.25
12,LTVHVGNVTYHFDNPEQAREWAKRMAKKYQGQIHVKDGQFRIE [E19R],1.69
13,LTVHVGNVTYHFDNQEQAEEWAKRMAKKYQGQIHVKDGQFRIE [P15Q],1.6
14,LTVHVGNVTYHFDNMEQAEEWAKRMAKKYQGQIHVKDGQFRIE [P15M],1.73
15,LTVHVGNVTYHFDNFEQAEEWAKRMAKKYQGQIHVKDGQFRIE [P15F],1.94
16,LTVHVGNVTYHFDNPIQAEEWAKRMAKKYQGQIHVKDGQFRIE [E16I],1.66
17,LTVHVGNCTYHFDNPEQAEEWAKRMAKKYQGQIHVKDGQFRIE [V8C],3.03
18,LTVHVGNHTYHFDNPEQAEEWAKRMAKKYQGQIHVKDGQFRIE [V8H],1.72
19,LTVHVGNMTYHFDNPEQAEEWAKRMAKKYQGQIHVKDGQFRIE [V8M],1.69
20,LTVHVGNVTYHFDNPENAEEWAKRMAKKYQGQIHVKDGQFRIE [Q17N],1.38

row,Variant,folding stability dG [kcal/mol]
1,LTVHVGNVTYHFDNPEDAEEWAKRMAKKYQGQIHVKDGQFRIE [Q17D],1.8
2,LTVHVGNVTYHFDNPERAEEWAKRMAKKYQGQIHVKDGQFRIE [Q17R],1.57
3,LTVHVGNVTYHFDNPEQAEEWAKRMAKKYQGQIHVKDGQFRIY [E43Y],1.71
4,LTVHVGNVTYHFDNPEQAEEWAKRMAKKYQGQIHVKDGQFRIP [E43P],1.15
5,LTVHVGNVTYHFDNPEQAEEWAKRMAKKYQGQIHVKDGQFRIL [E43L],1.76
6,LTVHVGNVTYHFDNPEQAEEWAKRMAKKYQGQIRVKDGQFRIE [H34R],1.55
7,LTVHVGNVTYHFDNPEQAEEWAKRMAKKYQGQIWVKDGQFRIE [H34W],1.42
8,LTVHVGNVTYHFDNPEQAEEWAKRMAKKYQGQIHVKDGQFGIE [R41G],1.3
9,LTVHVGNVTYHFDNPEQAEEWAKRMAKKYQGQIHVKDGQFSIE [R41S],1.57
10,LTVHQGNVTYHFDNPEQAEEWAKRMAKKYQGQIHVKDGQFRIE [V5Q],0.495
11,LTVHVGNVTYHFDNPEQAEEWAKRMAKKYQGQIHKKDGQFRIE [V35K],1.17
12,LTVHVGNVTYHFDNPEQAEEWAKRMAKKYQGQIHYKDGQFRIE [V35Y],2.19
13,LTVHVGNVTYHFDNPEQAEEWAKRMAKKYQGQIHDKDGQFRIE [V35D],0.963
14,LTVMVGNVTYHFDNPEQAEEWAKRMAKKYQGQIHVKDGQFRIE [H4M],1.8
15,LTVFVGNVTYHFDNPEQAEEWAKRMAKKYQGQIHVKDGQFRIE [H4F],1.6
16,LTVVVGNVTYHFDNPEQAEEWAKRMAKKYQGQIHVKDGQFRIE [H4V],1.97
17,LTVNVGNVTYHFDNPEQAEEWAKRMAKKYQGQIHVKDGQFRIE [H4N],1.27
18,LTVHVGNVTYHFDNPEQAEEWAKRMAEKYQGQIHVKDGQFRIE [K27E],1.67
19,LTVHVGNVTYHFDNPEQAEEWAKRMAAKYQGQIHVKDGQFRIE [K27A],1.83

# — the MegaScale stability set (Tsuboyama et al. 2023)
